We go through one molecule from patent publication US20190382455A1 (Sanofi, published 2019).

One test addresses T1, activated MMP-9 (UniProt P14780 107-707, limits assumed).
T1 construct: Used as analyte in SPR
The experiment in a line: SPR (Biacore T200), biotinylated fusion molecule captured on CAP chip, activated MMP-9 as analyte. (Surface plasmon resonance follows binding to a sensor surface in real time, without labels.)

For the next test, the target named is T2, MMP-9 proform (UniProt P14780 20-707).
T2 construct: Used as analyte in SPR; also called proform MMP-9; proform MMP9
The experiment in a line: SPR (Biacore T200), biotinylated fusion molecule captured on CAP chip, MMP-9 proform as analyte.

T1 sequence (P14780 107-707 limits assumed): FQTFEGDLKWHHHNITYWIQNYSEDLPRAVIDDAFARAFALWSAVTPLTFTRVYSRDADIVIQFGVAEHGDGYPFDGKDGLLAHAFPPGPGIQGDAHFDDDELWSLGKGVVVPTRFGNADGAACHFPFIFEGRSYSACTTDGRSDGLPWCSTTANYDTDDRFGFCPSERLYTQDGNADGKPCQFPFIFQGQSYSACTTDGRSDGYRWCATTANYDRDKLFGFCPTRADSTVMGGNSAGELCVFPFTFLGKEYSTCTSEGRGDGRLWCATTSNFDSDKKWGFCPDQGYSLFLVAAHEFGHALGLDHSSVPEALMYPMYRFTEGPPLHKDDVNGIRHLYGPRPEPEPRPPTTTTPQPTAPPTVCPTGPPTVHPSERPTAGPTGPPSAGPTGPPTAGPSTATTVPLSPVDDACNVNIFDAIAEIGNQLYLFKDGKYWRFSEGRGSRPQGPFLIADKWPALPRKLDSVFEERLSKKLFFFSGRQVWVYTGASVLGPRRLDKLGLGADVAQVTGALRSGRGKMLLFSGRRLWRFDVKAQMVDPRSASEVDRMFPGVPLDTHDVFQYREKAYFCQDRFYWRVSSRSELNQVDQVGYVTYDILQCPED
T2 sequence (P14780 20-707 limits assumed): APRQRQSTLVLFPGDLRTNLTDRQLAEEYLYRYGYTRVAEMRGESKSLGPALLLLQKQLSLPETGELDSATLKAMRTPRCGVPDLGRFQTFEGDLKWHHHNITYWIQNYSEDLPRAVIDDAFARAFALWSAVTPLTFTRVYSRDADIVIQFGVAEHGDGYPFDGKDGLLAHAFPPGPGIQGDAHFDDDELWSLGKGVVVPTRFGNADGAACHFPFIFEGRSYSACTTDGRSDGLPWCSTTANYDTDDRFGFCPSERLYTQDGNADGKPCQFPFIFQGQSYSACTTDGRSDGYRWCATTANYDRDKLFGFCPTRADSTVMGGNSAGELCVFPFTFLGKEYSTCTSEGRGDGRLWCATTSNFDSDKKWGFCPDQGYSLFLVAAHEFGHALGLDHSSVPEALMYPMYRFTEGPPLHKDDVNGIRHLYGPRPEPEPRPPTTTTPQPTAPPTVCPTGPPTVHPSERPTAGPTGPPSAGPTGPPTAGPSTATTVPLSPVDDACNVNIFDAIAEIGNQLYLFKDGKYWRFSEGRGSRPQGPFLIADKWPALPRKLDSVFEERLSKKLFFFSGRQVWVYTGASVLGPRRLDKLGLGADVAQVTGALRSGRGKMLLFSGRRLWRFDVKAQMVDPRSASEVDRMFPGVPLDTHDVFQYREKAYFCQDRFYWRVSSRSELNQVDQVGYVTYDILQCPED

B1: fusion molecule of SEQ ID NO: 134 (designed binder)
chain: QDSTSDLIPAPPLSKVPLQQNFQDNQFQGKWYVVGVAGNTILREDKDPGKMNAAIYELKEDKSYDVTDVRFIRKKCHYYIDTFVPGSQPGEFTLGNIKSYPGTTSQLVRVVSTNYNQHAMVFFKIVRQNREIFWITLYGRTKELTSELKENFIRFSKSLGLPENHIVFPVPIDQCIDGGGGGSGGGGSQDSTSDLIPAPPLSKVPLQQNFQDNQFQGKWYVVGWAGNTALREDKDPPKMPAVIYELKEDKSYDVTDVQFPEKECIYSTITFVPGSQPGEFTLGGIKSSPGQTSHLVRVVSTNYNQHAMVFFKYVTQNREGFNIALYGRTKELTSELKENFIRFSKSLGLPENHIVFPVPIDQCIDGGGGGSGGGGSQDSTSDLIPAPPLSKVPLQQNFQDNQFQGKWYVVGEAGNLARREDKDPMKMMATIYELKEDKSYDVTEVRFRHKKCKYDIVTFVPGSQPGEFTLGLIKSDPGQTPELVRVVSTNYNQHAMVFFKKVVQNREYFWITLYGRTKELTSELKENFIRFSKSLGLPENHIVFPVPIDQCIDGGGGGSGGGGSQDSTSDLIPAPPLSKVPLQQNFQDNQFQGKWYVVGHAGNQWLREGRDPRKMWATIYELKEDKSYDVTDVDFAIKKCLYRITTFVPGSQPGEFTLGNIKSHPGGTSGLVRVVSTNYNQHAMVFFKFVIQNREAFFITLYGRTKELTSELKENFIRFSKSLGLPENHIVFPVPIDQCIDG
modifications: biotinylated with EZ-Link NHS-PEG4-Biotin for capture on the chip
notes: also called RA10680550
In the case of B1, the binding result with activated MMP-9 and with MMP-9 proform was “no binding (tested: ≥1 µM)” each time.
